As a reminder, the Km is the substrate concentration at which the rate is half of its maximum. As a reminder, the kcat is the number of substrate molecules converted per active site and unit of time at saturation. A word on the kcat/Km: it is the turnover number divided by the Michaelis constant.

The source of these data is publication PMC4068969, “SacPox from the thermoacidophilic crenarchaeon Sulfolobus acidocaldarius is a proficient lactonase” (BMC Research Notes, 2014).

Data set [1] addresses T1, SacPox (Sulfolobus acidocaldarius, UniProt Q4J6Z8).
T1 construct: gene pte; recombinant in E. coli BL21(DE3)-pGro7/GroEL with CoCl2
The data set can be described thus: p-nitrophenolate release, […] nm. The following applies: 50 mM HEPES pH 8, 150 mM NaCl, 0.2 mM CoCl2, 25°C, cobalt cofactor; for Km: no SDS. The format is biochemical.

The target of data set [2] is T1, SacPox. The data set can be described thus: phenyl acetate hydrolysis, […] nm. It counts as biochemical. The following applies: 50 mM HEPES pH 8, 150 mM NaCl, 0.2 mM CoCl2, 25°C; cobalt cofactor.
Data set [3] deals with T1, SacPox. It counts as biochemical. To be noted: 2.5 mM Bicine pH 8.3, 150 mM NaCl, 0.2 mM CoCl2, 0.5% DMSO, 25°C; cobalt cofactor.
The subject of the next data set is CCCC1CCC(=O)O1. The data set can be described thus: purified protein. To be noted: 2.5 mM Bicine pH 8.3, 150 mM NaCl, 0.2 mM CoCl2, 0.5% DMSO, 25°C, cobalt cofactor. The format is biochemical, Sulfolobus acidocaldarius.
The subject of the next data set is CCCCC1CCCC(=O)O1. The data set can be described thus: purified protein. It counts as biochemical, Sulfolobus acidocaldarius. To be noted: 2.5 mM Bicine pH 8.3, 150 mM NaCl, 0.2 mM CoCl2, 0.5% DMSO, 25°C, cobalt cofactor.
Data set [4] deals with CCCCCC(=O)CC(=O)N[C@H]1CCOC1=O. The data set can be described thus: purified protein. It counts as biochemical, Sulfolobus acidocaldarius. The following applies: 2.5 mM Bicine pH 8.3, 150 mM NaCl, 0.2 mM CoCl2, 0.5% DMSO, 25°C, cobalt cofactor.
Another data set relates to CCCCCC1CCC(=O)O1. The data set can be described thus: purified protein. To be noted: 2.5 mM Bicine pH 8.3, 150 mM NaCl, 0.2 mM CoCl2, 0.5% DMSO, 25°C, cobalt cofactor. The format is biochemical, Sulfolobus acidocaldarius.
The test system of another data set is CCCCCCC1CCCC(=O)O1. The data set can be described thus: purified protein. It counts as biochemical, Sulfolobus acidocaldarius. The following applies: 2.5 mM Bicine pH 8.3, 150 mM NaCl, 0.2 mM CoCl2, 0.5% DMSO, 25°C, cobalt cofactor.
Data set [5] concerns CCCCCCCC(=O)CC(=O)N[C@H]1CCOC1=O. The data set can be described thus: purified protein. It counts as biochemical, Sulfolobus acidocaldarius. To be noted: 2.5 mM Bicine pH 8.3, 150 mM NaCl, 0.2 mM CoCl2, 0.5% DMSO, 25°C, cobalt cofactor.
The subject of another data set is CCCCCCCC(=O)NC1CCOC1=O. The data set can be described thus: purified protein. The format is biochemical, Sulfolobus acidocaldarius. The following applies: 2.5 mM Bicine pH 8.3, 150 mM NaCl, 0.2 mM CoCl2, 0.5% DMSO, 25°C, cobalt cofactor.
The next data set relates to CCCCCCCC1CCCC(=O)O1. The data set can be described thus: purified protein. To be noted: 2.5 mM Bicine pH 8.3, 150 mM NaCl, 0.2 mM CoCl2, 0.5% DMSO, 25°C, cobalt cofactor. It counts as biochemical, Sulfolobus acidocaldarius.
Another data set has as its system CCCCCCCCC1CCC(=O)O1. The data set can be described thus: purified protein. The format is biochemical, Sulfolobus acidocaldarius. The following applies: 2.5 mM Bicine pH 8.3, 150 mM NaCl, 0.2 mM CoCl2, 0.5% DMSO, 25°C, cobalt cofactor.

Like-named read-outs stand apart in the source and are kept apart here.

Consider `COP(=O)(OC)Oc1ccc([N+](=O)[O-])cc1` [Methyl Paraoxon], for which, on SacPox [1], the Km is 278 ± 40 µM.

With `CCOP(=O)(OCC)Oc1ccc([N+](=O)[O-])cc1` [Paraoxon], the Michaelis constant (Km) at SacPox [1] was found to be 434 ± 54 µM.

For the molecule `CC(=O)Oc1ccccc1` [Phenyl-acetate], the “K M (μM)” value at SacPox [2] is listed as 8 181 ± 1750 μM.

As to `CC(=O)Oc1ccc([N+](=O)[O-])cc1` [pNP-acetate], the “K M (μM)” value on SacPox [1] is 2 107 ± 313 μM.

Turning to `O=C1CCCCCO1` [ϵ caprolactone], on SacPox [3], the “K M (μM)” value is 1 031 ± 83 μM.

Take “SacPox (Sulfolobus acidocaldarius DSM 639)”: the Km turned out to be 388 ± 62 µM with CCCC1CCC(=O)O1; 348 ± 53 µM with CCCCC1CCCC(=O)O1; 836 ± 178 µM in [4]; 109 ± 19 µM in the data set on CCCCCC1CCC(=O)O1; 168 ± 37 µM with CCCCCCC1CCCC(=O)O1; 213 ± 33 µM in [5]. Moreover, the values for the Km with CCCCCCCC(=O)NC1CCOC1=O, in the data set with CCCCCCCC1CCCC(=O)O1 and in the data set on CCCCCCCCC1CCC(=O)O1 were 178 ± 26 µM, 185 ± 27 µM and 242 ± 60 µM, respectively. Moreover, the kcat amounted to 10.2 ± 0.5 s⁻¹ in the data set on CCCC1CCC(=O)O1; 4.55 ± 0.21 s⁻¹ in the data set on CCCCC1CCCC(=O)O1; 0.89 ± 0.07 s⁻¹ in data set [4]; 2.64 ± 0.07 s⁻¹ in the data set on CCCCCC1CCC(=O)O1; 1.05 ± 0.05 s⁻¹ with CCCCCCC1CCCC(=O)O1; 1.03 ± 0.04 s⁻¹ in data set [5]. Also, the figures for the kcat in the data set on CCCCCCCC(=O)NC1CCOC1=O, in the data set on CCCCCCCC1CCCC(=O)O1 and with CCCCCCCCC1CCC(=O)O1 were 0.94 ± 0.02 s⁻¹, 3.34 ± 0.07 s⁻¹ and 0.53 ± 0.03 s⁻¹, respectively. Further, the kcat/Km with CCCC1CCC(=O)O1 is 26400 ± 4400 M⁻¹ s⁻¹; in the data set on CCCCC1CCCC(=O)O1 it was 13100 ± 2100 M⁻¹ s⁻¹; in data set [4], 1070 ± 250 M⁻¹ s⁻¹; in the data set with CCCCCC1CCC(=O)O1, 24400 ± 4400 M⁻¹ s⁻¹; in the data set with CCCCCCC1CCCC(=O)O1, 6220 ± 1400 M⁻¹ s⁻¹; in data set [5], 4880 ± 770 M⁻¹ s⁻¹. Moreover, the kcat/Km in the data set on CCCCCCCC(=O)NC1CCOC1=O turned out to be 5280 ± 770 M⁻¹ s⁻¹; in the data set with CCCCCCCC1CCCC(=O)O1, 18100 ± 2700 M⁻¹ s⁻¹; in the data set on CCCCCCCCC1CCC(=O)O1, 2210 ± 570 M⁻¹ s⁻¹.
